First the molecules themselves.
T1: ETS1 (Homo sapiens, UniProt P14921)
T1 sequence: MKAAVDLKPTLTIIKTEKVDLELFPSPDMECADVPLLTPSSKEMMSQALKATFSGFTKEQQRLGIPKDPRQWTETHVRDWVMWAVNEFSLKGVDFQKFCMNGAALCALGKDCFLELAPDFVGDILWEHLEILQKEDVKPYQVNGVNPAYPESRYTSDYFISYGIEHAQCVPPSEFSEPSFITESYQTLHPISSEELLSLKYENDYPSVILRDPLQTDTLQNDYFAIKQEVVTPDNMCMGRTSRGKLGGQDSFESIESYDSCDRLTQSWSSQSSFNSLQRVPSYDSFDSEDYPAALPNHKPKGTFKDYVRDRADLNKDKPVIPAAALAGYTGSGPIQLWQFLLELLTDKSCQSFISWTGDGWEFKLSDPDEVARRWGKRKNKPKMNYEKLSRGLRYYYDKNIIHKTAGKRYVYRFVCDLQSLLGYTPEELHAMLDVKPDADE

B1: Table S2 C row 164 (dsDNA)
DNA 1: GAGCGGAGACAGAACACCGCACACCCAGCGTCCCAA
DNA 2: TTGGGACGCTGGGTGTGCGGTGTTCTGTCTCCGCTC
B2: Table S2 C row 114 (dsDNA)
DNA 1: CTCTTCCATGCAGGCTGTGGTTGCCTTCAAATACCG
DNA 2: CGGTATTTGAAGGCAACCACAGCCTGCATGGAAGAG
B3: Table S2 C row 142 (dsDNA)
DNA 1: CCTAAGAGTAAGCTAACCACAGGGATTCTTTTGTAG
DNA 2: CTACAAAAGAATCCCTGTGGTTAGCTTACTCTTAGG
B4: Table S2 C row 104 (dsDNA)
DNA 1: TCTCCCAGCGTCTGATGTGGCTTCGGTGTCAGACAT
DNA 2: ATGTCTGACACCGAAGCCACATCAGACGCTGGGAGA
B5: Table S2 C row 9 (dsDNA)
DNA 1: CATGTGAGCGACTGGGCCGCAGCCATCAGCCTCCTG
DNA 2: CAGGAGGCTGATGGCTGCGGCCCAGTCGCTCACATG
B6: Table S2 C row 132 (dsDNA)
DNA 1: GGCCTGATAGCAATGGCCACAAACACAGCAAGCCAC
DNA 2: GTGGCTTGCTGTGTTTGTGGCCATTGCTATCAGGCC
B7: Table S2 C row 24 (dsDNA)
DNA 1: GACGGGCGCGCGGCTTGCGGGCGGCGGGGCGCTGGG
DNA 2: CCCAGCGCCCCGCCGCCCGCAAGCCGCGCGCCCGTC
B8: Table S2 C row 79 (dsDNA)
DNA 1: CCCATCAGCAGAAAAACCACAGCAAGCTTAATGTGC
DNA 2: GCACATTAAGCTTGCTGTGGTTTTTCTGCTGATGGG
B9: Table S2 C row 109 (dsDNA)
DNA 1: CAAGCCCAAGAACGCTGTGGTTTTTGCAGACTCATA
DNA 2: TATGAGTCTGCAAAAACCACAGCGTTCTTGGGCTTG
B10: Table S2 C row 21 (dsDNA)
DNA 1: TTGCAGAGTTAGCTAGCCACAGGCAAGTCTCCATTG
DNA 2: CAATGGAGACTTGCCTGTGGCTAGCTAACTCTGCAA
B11: Table S2 B row 1920 (dsDNA)
DNA 1: ACATTCTTCCGGTTGGACCTCCGCGATCAGCGCTGT
DNA 2: ACAGCGCTGATCGCGGAGGTCCAACCGGAAGAATGT
B12: Table S2 B row 3812 (dsDNA)
DNA 1: GAGTCGCTTCCGCTCCCGCCCCGCTCTCTGGCGTAG
DNA 2: CTACGCCAGAGAGCGGGGCGGGAGCGGAAGCGACTC
B13: Table S2 C row 178 (dsDNA)
DNA 1: GGCTGACTCTGTATCTGTGGGTGCTTCAGGGCCAAC
DNA 2: GTTGGCCCTGAAGCACCCACAGATACAGAGTCAGCC
B14: Table S2 C row 147 (dsDNA)
DNA 1: GGCCTCTGAGGAGCAGCCGCAGGAGGAGGAGGAGGT
DNA 2: ACCTCCTCCTCCTCCTGCGGCTGCTCCTCAGAGGCC
B15: Table S2 B row 1682 (dsDNA)
DNA 1: CTTGTTCTATTTCCTGTTTGTGCTGAGTGACTGTCT
DNA 2: AGACAGTCACTCAGCACAAACAGGAAATAGAACAAG
B16: Table S2 C row 190 (dsDNA)
DNA 1: TAAGAGAAAGCGCAAACCGCACAAGACCAGTTCAAA
DNA 2: TTTGAACTGGTCTTGTGCGGTTTGCGCTTTCTCTTA
B17: Table S2 C row 127 (dsDNA)
DNA 1: CCGCCCTCGGTCCCCACCGCGGAGGACTCTCTCAAG
DNA 2: CTTGAGAGAGTCCTCCGCGGTGGGGACCGAGGGCGG
B18: Table S2 C row 110 (dsDNA)
DNA 1: GGATTCAACATTCCTTGTGGGCTGCTGGCCCCAGAC
DNA 2: GTCTGGGGCCAGCAGCCCACAAGGAATGTTGAATCC
B19: Table S2 C row 102 (dsDNA)
DNA 1: GGTCAGGAGGGATGAACCACCGCTTACTCGTTCTTC
DNA 2: GAAGAACGAGTAAGCGGTGGTTCATCCCTCCTGACC
B20: Table S2 C row 56 (dsDNA)
DNA 1: TGTCTATCGATTAAAACCACTGGTAAGAGCCATTGA
DNA 2: TCAATGGCTCTTACCAGTGGTTTTAATCGATAGACA
B21: Table S2 C row 193 (dsDNA)
DNA 1: GCTCCTAGATGGCTCTGTGGGCAGGTGCTGGCCAAG
DNA 2: CTTGGCCAGCACCTGCCCACAGAGCCATCTAGGAGC
B22: Table S2 C row 171 (dsDNA)
DNA 1: GACTGGTGGATCACTTGAGGTCAGTTTGAGACCAGC
DNA 2: GCTGGTCTCAAACTGACCTCAAGTGATCCACCAGTC
B23: Table S2 C row 70 (dsDNA)
DNA 1: AAAGTCATTTAAGTGACCACACTTTATAGGCTTGCC
DNA 2: GGCAAGCCTATAAAGTGTGGTCACTTAAATGACTTT
B24: Table S2 C row 144 (dsDNA)
DNA 1: ACCGTCAATCTCGACACCGCGGAGCACAATGCGTGC
DNA 2: GCACGCATTGTGCTCCGCGGTGTCGAGATTGACGGT
B25: Table S2 C row 18 (dsDNA)
DNA 1: ACCCTCGAAGCTCTAACCACTGTGGGCTATTTTTGC
DNA 2: GCAAAAATAGCCCACAGTGGTTAGAGCTTCGAGGGT
B26: Table S2 C row 40 (dsDNA)
DNA 1: CTTCACGGCTAGTTCTGTGGGTGTCCCACTTAGTTT
DNA 2: AAACTAAGTGGGACACCCACAGAACTAGCCGTGAAG
B27: Table S2 C row 90 (dsDNA)
DNA 1: ACTGAAAATCTGCCTTGTGGCTGCTTCTGGTACACA
DNA 2: TGTGTACCAGAAGCAGCCACAAGGCAGATTTTCAGT
B28: Table S2 C row 83 (dsDNA)
DNA 1: AGAACTTAAGATCTCTGTGGCTTGTGTGTGTGTGTA
DNA 2: TACACACACACACAAGCCACAGAGATCTTAAGTTCT
B29: Table S2 C row 5 (dsDNA)
DNA 1: TAGTGTGAATCCCCGCCCACAGAGGGGCGGCACGTT
DNA 2: AACGTGCCGCCCCTCTGTGGGCGGGGATTCACACTA
B30: Table S2 C row 37 (dsDNA)
DNA 1: CTGGTGCAGAAAAAAACCACACAAGCCATTGGGTAG
DNA 2: CTACCCAATGGCTTGTGTGGTTTTTTTCTGCACCAG
B31: Table S2 C row 86 (dsDNA)
DNA 1: CGTCACTTCTGGAGCTGCGGTCGGGATCTGGGAGGA
DNA 2: TCCTCCCAGATCCCGACCGCAGCTCCAGAAGTGACG
B32: Table S2 B row 649 (dsDNA)
DNA 1: TTATTTCCGGTGTTGATCTTTTTATTGGTACCAGGC
DNA 2: GCCTGGTACCAATAAAAAGATCAACACCGGAAATAA
B33: Table S2 C row 65 (dsDNA)
DNA 1: GTCAGCTATAGTGACACCACAAGGCCTGAAGAGGGC
DNA 2: GCCCTCTTCAGGCCTTGTGGTGTCACTATAGCTGAC
B34: Table S2 B row 2515 (dsDNA)
DNA 1: CGGTGGCTTCCGGCCCATGGCGCTGGTTGGTGACTC
DNA 2: GAGTCACCAACCAGCGCCATGGGCCGGAAGCCACCG
B35: Table S2 C row 145 (dsDNA)
DNA 1: TGTGGCTGCCCTCAGACCACAAACCACCAGCCCTAT
DNA 2: ATAGGGCTGGTGGTTTGTGGTCTGAGGGCAGCCACA
B36: Table S2 C row 17 (dsDNA)
DNA 1: GGGGTGTACACTAGCTGCGGTCTGATTTAGCCCTTT
DNA 2: AAAGGGCTAAATCAGACCGCAGCTAGTGTACACCCC
B37: Table S2 C row 59 (dsDNA)
DNA 1: CAGACAGTAACAAATGGTGGTTGCCGTCATGTGAAG
DNA 2: CTTCACATGACGGCAACCACCATTTGTTACTGTCTG
B38: Table S2 C row 188 (dsDNA)
DNA 1: GGAGATAGCCTAGGCTGTGGTTTTTCAGAGAAACCT
DNA 2: AGGTTTCTCTGAAAAACCACAGCCTAGGCTATCTCC
B39: Table S2 C row 7 (dsDNA)
DNA 1: AAATAGCGCAGGTCAACCACAGACCCCAGCACTGCA
DNA 2: TGCAGTGCTGGGGTCTGTGGTTGACCTGCGCTATTT

Data on 39 molecules can be found in paper PMC10681739, “High-throughput data and modeling reveal insights into the mechanisms of cooperative DNA-binding by transcription factor proteins”.

This data set deals with T1, ETS1. The experiment in a line: gcPBM; 1 nM ETS1. To be noted: tags: N-terminal GST (pDEST15), kept (PMC6008103); label: surface-attached array probe.
Take B1: the binding signal was 352 PBM fluorescence, median of replicate spots.

Regarding B2, the binding signal was 357 PBM fluorescence, median of replicate spots.

Regarding B3, the binding signal is 351 PBM fluorescence, median of replicate spots.

Turning to B4, the binding signal was 352 PBM fluorescence, median of replicate spots.

On to B5, for which the binding signal was 350 PBM fluorescence, median of replicate spots.

For the molecule B6, the binding signal was 348 PBM fluorescence, median of replicate spots.

On to B7, for which the binding signal is 371 PBM fluorescence, median of replicate spots.

As for B8, the binding signal is 369 PBM fluorescence, median of replicate spots.

With B9, the binding signal is 353 PBM fluorescence, median of replicate spots.

With B10, the binding signal is 364 PBM fluorescence, median of replicate spots.

Regarding B11, the binding signal is 16500 PBM fluorescence, median of replicate spots.

On to B12, for which the binding signal is 15300 PBM fluorescence, median of replicate spots.

As to B13, the binding signal was 371 PBM fluorescence, median of replicate spots.

Consider B14, for which the binding signal was 353 PBM fluorescence, median of replicate spots.

For B15, the binding signal is 15900 PBM fluorescence, median of replicate spots.

For B16, the binding signal is 359 PBM fluorescence, median of replicate spots.

Take B17: the binding signal was 352 PBM fluorescence, median of replicate spots.

Take B18: the binding signal is 359 PBM fluorescence, median of replicate spots.

As to B19, the binding signal is 362 PBM fluorescence, median of replicate spots.

Consider B20, for which the binding signal is 359 PBM fluorescence, median of replicate spots.

For the molecule B21, the binding signal is 347 PBM fluorescence, median of replicate spots.

As to B22, the binding signal is 359 PBM fluorescence, median of replicate spots.

Take B23: the binding signal is 361 PBM fluorescence, median of replicate spots.

Consider B24, for which the binding signal was 352 PBM fluorescence, median of replicate spots.

Turning to B25, the binding signal was 356 PBM fluorescence, median of replicate spots.

With B26, the binding signal was 366 PBM fluorescence, median of replicate spots.

On to B27, for which the binding signal is 355 PBM fluorescence, median of replicate spots.

For B28, the binding signal is 361 PBM fluorescence, median of replicate spots.

For B29, the binding signal is 372 PBM fluorescence, median of replicate spots.

Consider B30, for which the binding signal was 369 PBM fluorescence, median of replicate spots.

As to B31, the binding signal is 360 PBM fluorescence, median of replicate spots.

Regarding B32, the binding signal was 43000 PBM fluorescence, median of replicate spots.

For B33, the binding signal was 370 PBM fluorescence, median of replicate spots.

On to B34, for which the binding signal was 14700 PBM fluorescence, median of replicate spots.

Consider B35, for which the binding signal is 352 PBM fluorescence, median of replicate spots.

On to B36, for which the binding signal is 351 PBM fluorescence, median of replicate spots.

In the case of B37, the binding signal was 367 PBM fluorescence, median of replicate spots.

For the molecule B38, the binding signal was 350 PBM fluorescence, median of replicate spots.

For the molecule B39, the binding signal was 355 PBM fluorescence, median of replicate spots.
